Data on 3 molecules can be found in US20200223903A1 (NEOMATRIX THERAPEUTICS, published 2020).

The target of test [1] is T1, insulin-like growth factor-1 (UniProt P05019 49-118).
T1 construct: also called IGF-1
Briefly: SPR (Biacore T200), real time interaction of peptide with growth factor. The procedure: (§1) To study the binding activities of these peptides, real time interactions of P12, P46, and cNP8 with growth factors were determined by plasmon surface resonance (Biacore T200).
On the technique in general: Surface plasmon resonance follows binding to a sensor surface in real time, without labels.

The target in another test is T2, epidermal growth factor (UniProt P01133 971-1023).
T2 construct: also called EGF
T2 sequence (P01133 971-1023 limits assumed): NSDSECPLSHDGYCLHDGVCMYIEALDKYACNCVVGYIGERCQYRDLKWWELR
The test is described as above. The procedure: as §1

T1 sequence (P05019 49-118 limits assumed): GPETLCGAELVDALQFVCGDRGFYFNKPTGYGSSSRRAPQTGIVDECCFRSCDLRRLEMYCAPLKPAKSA

B1: P12 (PSHISKYILRWRPK), 14-residue peptide of fibronectin's first type III repeat (peptide)
peptide: PSHISKYILRWRPK
notes: Linear P12 as named in the SPR paragraph
Take B1: the binding result (in test [1]; with epidermal growth factor) was “no binding” in each case.
For the molecule HIGKYGLRWRPKGSV (cyclic: N terminus amino acid bound to the C terminus amino acid, also called cyclic NP8) [cNP8, cyclic HIGKYGLRWRPKGSV, elastase-resistant engineered peptide derived from P46], the binding result (in test [1]; with epidermal growth factor) was “no binding” each time.

B2: P46 (HISKYILRWRPKNSV), fibronectin-derived peptide (peptide)
peptide: HISKYILRWRPKNSV
notes: Found as an elastase digestion product of FNIII1-C and then synthesized; Linear
B2: the binding result (in test [1]; with epidermal growth factor) was “no binding” throughout.
